{"source": "patent US20060251652A1", "about": "(APPLIED MOLECULAR EVOLUTION, published 2006)", "binders": {"B1": {"name": "AME 33 Fab (Fab, V domains shown)", "VH": "EVQLVQSGAEVKKPGESLKISCKGSGRTFTSYNMHWVRQMPGKGLEWMGAIYPLTGDTSYNQKSKLQVTISADKSISTAYLQWSSLKASDTAMYYCARSTYVGGDWQFDVWGKGTTVTVSS", "VL": "EIVLTQSPGTLSLSPGERATLSCRASSSVPYIHWYQQKPGQAPRLLIYATSALASGIPDRFSGSGSGTDFTLTISRLEPEDFAVYYCQQWLSNPPTFGQGTKLEIK", "notes": "Fab"}}, "molecular_target": "T1, human CD20 (human, UniProt P11836 1-297)", "T1 construct": "whole, on cells; Always presented on cells (fixed Ramos cells in ELISA; live cells in flow cytometry and KinExA-type assays); also called hCD20; Bp35", "T1 sequence (looked up)": "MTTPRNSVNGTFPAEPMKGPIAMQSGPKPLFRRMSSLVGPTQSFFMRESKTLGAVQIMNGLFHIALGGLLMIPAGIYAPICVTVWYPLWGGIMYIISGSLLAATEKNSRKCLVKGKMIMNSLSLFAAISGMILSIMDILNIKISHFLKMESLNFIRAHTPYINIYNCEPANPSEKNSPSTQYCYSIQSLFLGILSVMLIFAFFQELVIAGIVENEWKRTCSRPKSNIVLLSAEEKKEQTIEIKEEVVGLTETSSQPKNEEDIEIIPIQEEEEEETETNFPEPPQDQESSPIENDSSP", "experiment": "ELISA on formalin-fixed Ramos cells, off-rate format: after the Fab incubation the plate stood overnight in PBS/BSA before anti-His6 peroxidase, OD 450", "procedure": "Ramos cells (ATCC) were grown in RPMI 1640 containing 10% heat inactivated Fetal Bovine Serum. […] Media was gently aspirated and […] of aqueous buffered zinc formalin (Anatech, Ltd.) was added to each well for 15 minutes at room temperature. Z-fix was removed and the plate was washed with phosphate-buffered saline (PBS) containing 0.05% Tween 20. The plate was blocked for 1 hour with 1% bovine serum albumin (BSA) in PBS. Dilutions of Fab or IgG were incubated with the fixed and blocked Ramos cells for 1 hour at room temperature. The plate was washed 3× with PBS 0.05% Tween […] of anti-His6 Peroxidase Mouse Monoclonal Antibody (Roche Diagnostics Corporation) at a 1:500 dilution were added to the wells and incubated 1 hour at room temperature. The plate was washed as above and developed with tetramethyl benzidine, and the reaction was stopped with 5N H₂SO₄. The plate absorbance was read at OD 450 nm. Dilutions of Fab and conjugate were in 1% BSA/PBS.\nIgG assays were performed similarly except IgG bound was detected with goat anti-human IgG-HRP. To compare antibody off-rate, after incubation with Fab or IgG the plates were incubated over night in PBS/BSA, before proceeding with the second antibody step. To compare antibody on-rate, incubation steps for Fab/IgG binding and with the second antibody were both of 5 minutes duration."}
{"binder": "B1", "values": [{"measurement": "EC50 (read off the curve)", "value": "~0.3", "unit": "µg/mL"}]}
